Laboratory results reported in patent US20160369001A1 (JCR PHARMACEUTICALS, published 2016).

B1: mouse single-chain anti-hTfR antibody of Clone M23 (maltose binding protein fusion, E. coli lysate supernatant) (scFv, not shown: large carriers)
scFv: DYKDIVITQSHKFMSTSVGDRVSITCKASQDVSTAVAWYQQKPGQSPKLLIYSASYRYTGVPDRFTGSGSGTDFTFTISSVQAEDLAVYYCQQHYSTPYTFGGGTKLEIKRGGGGSGGGGSGGGGSGGGGSQVQLQQSGAELVRPGASVTLSCKASGYTFTDYEMHWVKQTPVHGLEWIGAIDPETGGTAYNQKFKGKATLTADKSSSTAYMELRSLTSEDSAVYYCTGWGFDYWGQGTTLTVSS
notes: Tested in the screening ELISA as an MBP fusion in crude E. coli lysate supernatant and detected with an HRP-labelled anti-MBP antibody
B2: mouse single-chain anti-hTfR antibody of Clone M27 (maltose binding protein fusion, E. coli lysate supernatant) (scFv, not shown: large carriers)
scFv: DYKDIVMTQSHKFMSTSVGDRVSITCKASQDVGTAVAWYQQKPGQSPKLLIYWASTRHTGVPDRFTGSGSGTDFTLTISNVQSEDLADYFCQQYSSYPYTFGGGTKLEIKRGGGGSGGGGSGGGGSGGGGSQVQLQQPGSELVRPGASVKLSCKASGYTFTSYWMHWVKQRPGQGLEWIGNIYPGSGSTNYDEKFKSKATLTVDTSSSTAYMQLSSLTSEDSAVYYCTRGATALDYWGQGTTLTVSS
notes: Tested in the screening ELISA as an MBP fusion in crude E. coli lysate supernatant; also called Clone 27
B3: mouse single-chain anti-hTfR antibody of Clone M11 (maltose binding protein fusion, E. coli lysate supernatant) (scFv, not shown: large carriers)
scFv: DYKDIVMTQSHKFMSTSVGDRVSITCKASQDVGTAVAWYQQKPGQSPKLLIYWASTRHTGVPDRFTGSGSGTDFTLTISNVQSEDLADYFCQQYSSYLTFGAGTKLELKRGGGGSGGGGSGGGGSGGGGSEVMLVESGGDLVKPGGSLKLSCAASGFTFSSYGMSWVRQTPDKRLEWVATISSGGSYTYYPDSVKGRFTISRDNAKNTLYLQMSSLKSEDTAMYYCALLRSDWYFDVWGAGTTVTVSS
notes: Tested in the screening ELISA as an MBP fusion in crude E. coli lysate supernatant and detected with an HRP-labelled anti-MBP antibody; The scFv is light chain, linker, heavy chain

molecular target: T1, recombinant human TfR (rhTfR) (Sino Biological) (human, UniProt P02786 89-760); experiment: ELISA, rhTfR coated on plate, MBP-scFv lysate supernatant, HRP-labelled anti-MBP detection, A450
T1 construct: Bought protein, coated on 96-well plates at 5 ug/mL; also called human transferrin receptor
T1 sequence (P02786 89-760 limits assumed): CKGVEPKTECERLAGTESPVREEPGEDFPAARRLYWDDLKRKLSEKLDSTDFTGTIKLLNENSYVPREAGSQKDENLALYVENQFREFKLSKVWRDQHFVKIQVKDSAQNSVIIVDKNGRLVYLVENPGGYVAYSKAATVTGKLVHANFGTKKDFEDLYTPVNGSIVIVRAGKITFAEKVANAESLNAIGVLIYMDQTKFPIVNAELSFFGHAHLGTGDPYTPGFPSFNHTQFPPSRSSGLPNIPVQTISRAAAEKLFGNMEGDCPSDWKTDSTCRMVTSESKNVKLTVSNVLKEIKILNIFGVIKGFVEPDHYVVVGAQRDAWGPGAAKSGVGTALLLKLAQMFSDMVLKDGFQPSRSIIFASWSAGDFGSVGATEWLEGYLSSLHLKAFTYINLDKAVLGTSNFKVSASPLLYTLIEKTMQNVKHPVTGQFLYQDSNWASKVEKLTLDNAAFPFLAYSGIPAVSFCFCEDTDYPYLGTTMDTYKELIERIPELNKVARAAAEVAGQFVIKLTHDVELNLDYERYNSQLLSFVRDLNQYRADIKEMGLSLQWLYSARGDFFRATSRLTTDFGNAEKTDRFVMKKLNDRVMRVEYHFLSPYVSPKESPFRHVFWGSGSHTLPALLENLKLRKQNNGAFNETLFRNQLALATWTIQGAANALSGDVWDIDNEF
Procedure: E. coli (JM109) was transformed respectively with the mouse and human single-chain anti-hTfR antibody cDNA libraries, and then disseminated on LB plates containing ampicillin (Amp), and cultured overnight at 37° C. On the following day, the colonies formed on the plates were collected one by one, with which Overnight Express™ Instant LB Medium (Novagen), which had been dispensed beforehand to 96-well plates, was inoculated. After the plates were shaken overnight at 37° C., a tenth amount of Popculture Reagent (Novagen) was added to lyse the cells, and following addition of an equal amount of TBS-T, the resulting mixture was centrifuged to collect the supernatant. This supernatant was used as a sample solution.
To each well of the 96-well plates was added 5 μg/mL of recombinant human TfR (rhTfR) (Sino Biological) or 50 μL of bovine gamma globulin (Bio-Rad, Inc.), and the plates were left undisturbed at 4° C. overnight. After removal of the solution, each well was washed once with 300 μL of TBS-T. Then, to each well was added 300 μL of 1% BSA solution, and the plates were left undisturbed for 30 minutes at room temperature. After removal of the solution, 100 μL of the above sample solution was added to each well, and the plates were left undisturbed for two hours at room temperature. After removal of the solution, each well was washed three times with 300 μL of TBS-T, and 50 μL of HRP-labelled anti MBP antibody (Novagen) was added, and the plates were left undisturbed for one hour at room temperature. After removal of the solution, each well was washed three times with 300 μL of TBS-T, then 50 μL of POD substrate solution (Nacalai Tesque, Inc.) was added, and a reaction was allowed to proceed for 10-15 minutes at room temperature. […] Three clones, M11, M23 and M27 were obtained as high affinity clones to rhTfR from the mouse single-chain anti-hTfR antibody cDNA library. A clone (B84) was obtained as a high affinity clone to rhTfR from the human single-chain anti-hTfR antibody cDNA library.

Binding result, binds:
B1, B2, B3
